The nature of this data set: soluble on expression in E. coli; label from the status in PepcDB or PDB records.
“MSLSSIRKKDVERFILSDDYKPMVLKELYKKFRAKTREQRKKVREVVKKLEKEGRIFRDSRGRYRKLGEDLKVGTIEFTRSGYVAFVITDDFEEIAVPVEDTKYAMHKDRVVVEITGTWRGLPRGRVVRVLERGLKRVVGVFDHKGTFGFVVPDDPKIAYDFYVAPENIDGAKPNQKVIAEILKYPSPGKNPEAKVVKVLGDLDDPSIDLPSVIVKHDLPEPGEFPEEVIREANAIPARVRKKDLVGRKDLRDKVIVTIDGEDAKDFDDAISVEKLPNGNYLLGVHIADVSHYVKEGSALDQEAFKRGTSVYLIDTVIPMLPFRLSNGICSLVEGKDRLTMSVEMEIDRDGRVVRYDVYPSVIKSKKRMIYERVNEFLEDPSSMKEYEPFKDLIYNAVELAEILREARRKRGAILDIESDEVKVILDENGQVVDIVPRKRGIAEKLIEEFMIRANETVAEIFDHAGLPFMYRVHEEPDPETIFQLKNYLEAMGIRAKFSHKIHPGMLQKLLEKVKDHPLRSSVERLLVRSMKRAMYSAVNIGHFGLASYAYTHFTSPIRRYPDLVVHRLLKLYLEQNGYFTPEQIEKFSKVLPKIAKHCSRRERVADEAEWDLVAMKKVEYIARHIGEVFNVVVTNITKFGLFVEIPEKSISGLVHISTLDDYYYYDETRNMLIGKRKGKVFRLGDVLKAKVVRADKIRGEIDFVLVEEDEEEGHHHHHH”: the “soluble on expression in E. coli” value was “not soluble”.

As for “MGSDKIHHHHHHMSEIEAQLPVIHFADAKTFETWIAEQGSDCKGLWVKFAKKASGIASITPREALDVALCYGWIDGQRIGSDSDFYLNKYTPRRARSRWSQVNCARATELIAEGRMTPRGLAEVERARTDGRWDAAAPPPSKATVPDDLHDALAQNAAAKMLFDELDSRNRYAILFRIHDAKKSETRAARIEKYVGMLARGETPYPRRKAR”, the “soluble on expression in E. coli” value is “not soluble”.

In the case of “MMNSTNKLSVIIPLYNAGDDFRTCMESLITQTWTALEIIIINDGSTDNSVEIAKYYAENYPHVRLLHQANAGASVARNRGIEVATGKYVAFVDADDEVYPTMYETLMTMALEDDLDVAQCNADWCFRETGETWQSIPTDRLRSTGVLTGPDWLRMGLSSRRWTHVVWMGVYRRDVIVKNNIKFIAGLHHQDIVWTTEFMFNALRARYTEQSLYKYYLHNTSVSRLHRQGNKNLNYQRHYIKITRLLEKLNRNYADKIMIYPEFHQQITYEALRVCHAVRKEPDILTRQRMIAEIFTSGMYKRLITNVRSVKVGYQALLWSFRLWQWRDKTRSHHRITRSAFNLRLEHHHHHH”, the “soluble on expression in E. coli” value is “not soluble”.

As for “GMTSREDEIRDFLATHGYADWNRTPLAGDASSRRYQRLRSPTGAKAVLMDWSPEEGGDTQPFVDLAQYLRNLDISAPEIYAEEHARGLLLIEDLGDALFTEVINNDPAQEMPLYRAAVDLLIHLHDAQTPELARLDPETLSEMTRLAFSEYRYAILGDAAEDNRKRFEHRFAQILSAQLEGDMVFVHRDFHAQNLLWLPEREGLARVGVIDFQDAKLGHRAYDLVSLLQDARRDVPAQVEAQMIDHYIQATGVDESHFRSAYAVIAVQRNMRILGIFARLSQRFGKRHYIEFVPRVWAHFERGLAHPALASAAEEILNALPAPAPEVLERLRA”, the “soluble on expression in E. coli” value was “soluble”.

As for “MKIAIIGAGNMGGSIARGLAKGSLIADSDIIVSNPSAGKLEKLKEEFPGISTTLSNTEAATGADVVILAVKPWFVESVMRELKLKSKQTLVSVAAGISFEELAHFVIAPEMPMFRLIPNTAISELESMTLIAARNTNDEQNLFMLRLFNEMGMAMLIPEDKIAATTALTSCGIAYVLKYIQAAMQAGIEMGIRPKDAMEMVAQSVKGAAALILNNDTHPSVEIDKVTTPGGITIKGINELEHNGFTSAVIKAMKASK”, the “soluble on expression in E. coli” value is listed as “soluble”.

On to “GSNGMSQLPAPVSVESSWRYIDTQGQIHGPFTTQMMSQWYIGGYFASTLQISRLGSTPETLGINDIFITLGELMTKLEKYDTDPFTTFDKLHVQTTSSDS”, for which the “soluble on expression in E. coli” value is given as “soluble”.

As to “MSLGKLIVPILKSPSHLGHSSSRVNRLYNEDKYSANLLQVKESQIFNFSIFDGHGGDQCSTYLAENLSLALEDLDQLVENDNDRQELFKKYAKNVGGYWKRWYKHRDNTVANWEKERIKLKNFLSDDLATRVPLAFLNADYNFFSKEQKSGSTCTSAMIETIYSKPGTFQPFFENYYFNRHTISKLSIGHLGDTRAIVADKNGLAHTLTTDHHPLNPIEAKRLRKYAANFFMTDSFGEERFVALANTRAFGDVDYKEVGVTAEPDFNQYIIGDLDAIKQFLTPDEIEKYTIGGLGGDESFLILCSDGVTNIMTDQEIADIVLTHVNLKGQTVATPQYCAEQVIKFVEFVGGDDNATCLVIRLNGWGNEGHHHHHH”, the “soluble on expression in E. coli” value is given as “not soluble”.

As to “MSLEMGMNWTHTPLALSALMFAMAAQATPNQATDAVAPEQATGFEHKSLVKAKNWMVTAANPLASEAGASILRQGGNAIDAMVTTQLMLGLVEPQSSGIGGGSFLVYWDAKKKALTTFDGRETAPLNATPELFLDSTGQPMKFYDAVVGGRSVGTPGTVKLLWETHRQYGKLEWARLIEPVAKLAEQGFEVSPRLAALIAEDKERLGRFPATKAYFFDAQGEPLTAGTLLKNPDYAATLRAIAQQGASAFYQGDIAKDIIATVQNAPGNPGVLAQQDFDTYQVKQRAPVCAAYQSYQVCGMGLPSSGGLTVGQILALTEQYDLKGWGAQDVKSWQVLGDASQLAFADRGLYMADQDYVPVPTQGLLDKTYLAERAKLIQPGKALTSAPAGNPPWHHAQLRSPDQSIELPSTSHFNIVDREGNVVSFTTSIENAFGSRLLVRGFLLNNELTDFSFATQSEGRPIANRLEPGKRPRSSMAPTIVLQDNQPYLAIGSPGGSRIIGYVAQAIVAHTQWGMNIQAAINQPHVLNRFGEIELEQGTSAEQFKPALESLGAKVGIKELNSGLHAIRITAQGLEGAADPRREGVAIGEGHHHHHH”, the “soluble on expression in E. coli” value is listed as “not soluble”.

As for “ANIIANTALTIGATKVDVKEITPELLASLNEIGGSEANVASGYHAIEFLLWGQDLNGTKAGAGARSYTDYLQGKACTNNHCDRRAQYLKAAAQLLVTDLEWMEKQWASGEKDNYRQQLLSESAENGLRKMLFGMGSLSLGELAGERMKVALEANSTEDEHDCFSDNTHNSHYYNEQGIYNIYTGSYTRADGSELKGPSLYQLVAEKDANAAKEILQQFEAARTQVGELVTAAEKNNQHFDQLIAADNAAGHAIINQAIMALVAQTGSIERAAGIIGIDNLNPDTADHEF”, the “soluble on expression in E. coli” value was “not soluble”.

“MGSDKIHHHHHHMEVTRTDKAVTLRWENEEVSEGTLVFVSSSPSLEANSEPVFKVSNAAKHYTFETKDIPVYFFLQAPNGDKRVVSERILPLESVFNFRDMGGYKTKHGHHVKWGKLYRSSNLVNINQADAALLQKLHIKWICDLRSSSEVQAQPTPEIQGVLNKHIPIGTAKNEKTTLPVSNDKAIYEPLMGESYRVFVQSVDGFKEIFSEILTDAKAGLPFVFHCTAGKDRTGVLAALLLTLLDVPEKTIFDDYAITNRYQDNILQEMGGIVSLFSNGNEKIDLEAFRPMAEARPEYLKIAFDEMKKQFGSVDGYLEKGIGITAEEKAIIQQQLLE”: the “soluble on expression in E. coli” value is recorded as “not soluble”.

Regarding “MDPKAEGNGENITETAAGNVETSDFVNLKRQKREGVNSTGMSEIDMTGSQETPEHNMHGSPTHTDDLGPRLDADMLDSQSSHVSSSAQGNRSEVENELSNLFAKMALPGHDRRTDEYILVRQTGQDKFAGTTKCNLDHLPTKAEFNASCRLYRDGVGNYYPPPLAFERIDLPEQLAAQLHNLEPREQSKQCFQYKLEVWNRAHAEMGITGTDIFYQTDKNIKLDRNYKLRPEDRYIQTEKYGRREIQKRYEHQFQAGSLLPDILIKTPQNDIHFSYRFAGDAYANKRFEEFERAIKTKYGSDTEIKLKSKSGIMHDSKYLESWERGSADIRFAEFAGENRAHNKQFPAATVNMGRQPDGQGGMTRDRHVSVDYLLQNLPNSPWTQALKEGKLWDRVQVLARDGNRYMSPSRLEYSDPEHFTQLMDQVGLPVSMGRQSHANSVKFEQFDRQAAVIVADGPNLREVPDLSPEKLQQLSQKDVLIADRNEKGQRTGTYTNVVEYERLMMKLPSDAAQLLAEPSDRYSRAFVRPEPALPPISDSRRTYESRPRGPTVNSL”, the “soluble on expression in E. coli” value is “soluble”.

Turning to “GSHMRPQGATVSLWETVQKWREYRRQCQRSLTEDPPPATDLFCNRTFDEYACWPDGEPGSFVNVSCPWYLPWASSVPQGHVYRFCTAEGLWLQKDNSSLPWRDLSECEESKRGERSSPEEQLLFLY”, the “soluble on expression in E. coli” value is “soluble”.

“MAHHHHHHMKEYLAQKEYRAKEYRAKDYPAKDYSGKKEYTSKKAYTPKKEYTAIRGCAVENAYFDEKAYTGCKANQGEEAHKNDASVVEGGKSKKNEERVLAGMIKILEEMKESDDASNAVDPGFN”: the “soluble on expression in E. coli” value is “not soluble”.

Take “MRIEVTIAKTSPLPAGAIDALAGELSRRISHHFPENLGNVTVRYATANNLSVIGASKEDKERISEILQETWESADDWFINE”: the “soluble on expression in E. coli” value is recorded as “not soluble”.

Consider “MGSDKIHHHHHHMKSIEELYKRALELKNKGMSDKEISTELHLSVNTVTWLLSKEFLKEGAVQDVKIGWRSVGVFGSRIISIAEIMSDIIREEMNKNSFEVDSILGIAINGIPYATLVSYLMDKELIVYRPHPARKEGVFSSNFASVEGKRVVIIDDVASTGETMRRTITDVTKEGGKPVLCVLLASKMSVNDLNGVPVRSLIRTQVIGGS”, for which the “soluble on expression in E. coli” value is on record as “not soluble”.

For “METQEKKFVPASKQIPTVNSGWLDRELGEAMSEAVRACLAHGKQSEITVKLKIQPQNIQSGTVKISHDVATKLPKEKREGGIVFATPDGNIQADDPAQGKLKLKQVSNTSSTLKMVRSN”, the “soluble on expression in E. coli” value is on record as “not soluble”.

For the sequence “MSLNRIILLDRDGVINTDSINYIKNVDELIIIPDSIIAIARLSAAGYKIGVATNQSGVSRGLYSEDDLSAIHCKLREVLAEAGGQIDALEYCIHLPEDNCFCRKPQPGMLKALAEKLNCSLDSVPFVGDRVSDIQAALAVGAQPIIVLSNMTDMSELAQYPKVPIYNSLLQYVNQLLLEGHHHHHH”, the “soluble on expression in E. coli” value is “soluble”.

As to “GPGSMEDYKAKGNDAFKAKRYQEAIDWYTKAIELDPNGEASGALYSNRAGSWQNLNNFEKAAADSEQCIRLRPDWLKGYFRLGVAMESMVKYDEAQKAFQKALQLSPGNEEGWTSCTPLILKFASAYEKTKSRSARPLKKPSNLATPS”, the “soluble on expression in E. coli” value is on record as “soluble”.

For the sequence “MGSDKIHHHHHHMVPHLITALNGPLLELEKKILDATPSIERWFRLEWQEHTPPFYCSVDLRNAGFKLAPVDTNLFPGGFNNLAPEMLPLAVQAAMAAIEKICPDAKNLLLIPERHTRNMFYLQNVARLSLIMRQAGLNVRLGSLSEEITEPTPIELPDGQTLVVEPLARLGTKDRRLGLKDFDPCSILLNNDLSAGIPPILENINEQYLLPPLHAGWSTRRKSSHFAAYDEVAKKFAKLIDIDQWMVNPYFARCSGVNFHERIGEEELADSVEAVLKKIAKKYREYGIKETPYVVVKADAGTYGMGIMTVRDPSEVKGLNRKERNKMSVVKEGLEVSDVIIQEGVHTFEKVNEAVAEPVVYMIDRYVVGGFYRVHTGRGNDENLNAPGMHFVPLAFAPNGIPDSHAKPGAAVPNRFYMYGVVARLALLAASIELEKTDPNPIL”, the “soluble on expression in E. coli” value is given as “not soluble”.

Take “MKFVNFDEYKQLVDYFRNRLNPNYSSPTMLFIISITGMRASEAFGLVWDDIDFNNNTIKCRRTWNYRNKVGGFKKPKTDAGIRDIVIDDESMQLLKDFREQQKTLFESLGIKPIHDFVCYHPYRKIITLSALQNTLDHALKKLNISTPLTVHGLRHTHASVLLYHGVDIMTVSKRLGHASVAITQQTYIHIIKLEHHHHHH”: the “soluble on expression in E. coli” value is listed as “not soluble”.

The record behind these values is the DeepSol protein solubility set.
